Data reported in patent US20110306105A1 (University of California, published 2011).

Tests used:
[1] = biological target: T1, trifunctional scaffoldin Scaf-ctf displayed on the yeast (S. cerevisiae EBY100) cell surface (chimeric: C. cellulolyticum, C. …, Displayed on the S. cerevisiae EBY100 cell surface through an N-terminal anchor fusion, which the letters do not carry.); experiment: immunofluorescence microscopy, yeast displaying Scaf-ctf incubated with E. coli lysate
T1 construct: also called Sacf-ctf; SCAF6; not shown: N-terminal yeast display anchor and linker of vector pCTCON2 (called the GPI anchor); C-terminal c-Myc tag; the vector junctions; possibly a His stretch carried over from pETscaf6, since reverse primer R1SalI anneals on His codons
T1 chain: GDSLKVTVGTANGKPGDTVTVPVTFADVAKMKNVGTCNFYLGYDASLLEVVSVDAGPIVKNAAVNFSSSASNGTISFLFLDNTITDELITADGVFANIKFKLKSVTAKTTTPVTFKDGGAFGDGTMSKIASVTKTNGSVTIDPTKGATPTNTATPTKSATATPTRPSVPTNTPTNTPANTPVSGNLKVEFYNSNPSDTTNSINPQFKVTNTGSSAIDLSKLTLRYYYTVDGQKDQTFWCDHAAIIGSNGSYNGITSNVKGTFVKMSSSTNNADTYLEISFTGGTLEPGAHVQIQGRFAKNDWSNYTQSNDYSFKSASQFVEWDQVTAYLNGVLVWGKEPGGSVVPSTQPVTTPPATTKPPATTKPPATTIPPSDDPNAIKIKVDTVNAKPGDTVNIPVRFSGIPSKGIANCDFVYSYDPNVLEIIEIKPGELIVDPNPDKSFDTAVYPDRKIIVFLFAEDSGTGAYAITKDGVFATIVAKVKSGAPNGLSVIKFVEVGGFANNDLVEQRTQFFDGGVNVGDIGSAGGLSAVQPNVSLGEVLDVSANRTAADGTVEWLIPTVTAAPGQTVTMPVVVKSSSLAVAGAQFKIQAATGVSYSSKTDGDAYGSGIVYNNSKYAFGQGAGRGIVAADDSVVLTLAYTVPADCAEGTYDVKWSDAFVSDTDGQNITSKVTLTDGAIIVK

[2] = biological target: T2, scaffoldin Scaf-c displayed on the yeast cell surface (chimeric: C. cellulolyticum cohesin …); experiment: immunofluorescence microscopy with anti-His6 on yeast displaying Scaf-c incubated with E. coli lysate
T2 construct: also called Sacf-c; not shown: yeast surface display anchor of vector pCTCON2; C-terminal c-Myc tag
T2 chain: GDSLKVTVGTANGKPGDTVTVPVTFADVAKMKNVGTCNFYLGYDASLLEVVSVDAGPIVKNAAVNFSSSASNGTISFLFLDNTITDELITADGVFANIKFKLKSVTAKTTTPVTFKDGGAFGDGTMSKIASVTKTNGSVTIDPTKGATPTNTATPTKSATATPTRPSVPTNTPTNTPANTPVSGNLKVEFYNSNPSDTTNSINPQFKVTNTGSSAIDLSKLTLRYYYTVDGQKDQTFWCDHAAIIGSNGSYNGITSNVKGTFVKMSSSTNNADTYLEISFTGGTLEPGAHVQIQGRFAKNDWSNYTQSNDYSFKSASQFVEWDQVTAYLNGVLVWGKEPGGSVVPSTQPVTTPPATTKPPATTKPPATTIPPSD

[3] = biological target: T3, scaffoldin Scaf-ct displayed on the yeast cell surface (chimeric: C. cellulolyticum, C. …); experiment: immunofluorescence microscopy with anti-His6 on yeast displaying Scaf-ct incubated with E. coli lysate
T3 construct: also called Sacf-ct; not shown: yeast surface display anchor of vector pCTCON2; C-terminal c-Myc tag
T3 chain: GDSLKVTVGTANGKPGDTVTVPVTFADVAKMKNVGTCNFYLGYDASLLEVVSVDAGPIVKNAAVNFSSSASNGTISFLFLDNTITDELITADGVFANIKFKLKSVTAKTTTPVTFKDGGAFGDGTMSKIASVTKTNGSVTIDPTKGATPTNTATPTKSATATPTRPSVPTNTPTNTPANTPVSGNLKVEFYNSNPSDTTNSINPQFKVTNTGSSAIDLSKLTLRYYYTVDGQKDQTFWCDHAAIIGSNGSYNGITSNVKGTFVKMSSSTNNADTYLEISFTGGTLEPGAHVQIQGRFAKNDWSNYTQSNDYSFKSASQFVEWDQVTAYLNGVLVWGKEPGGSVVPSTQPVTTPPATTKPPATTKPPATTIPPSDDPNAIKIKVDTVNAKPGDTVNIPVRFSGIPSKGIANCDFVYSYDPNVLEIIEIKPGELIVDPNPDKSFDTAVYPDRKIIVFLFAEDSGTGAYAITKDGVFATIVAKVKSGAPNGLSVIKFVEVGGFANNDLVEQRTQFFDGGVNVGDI

Row | Binder | binding result [1] | binding result [2] | binding result [3]
1 | exoglucanase CelE from C. cellulolyticum fused to a dockerin domain from the same species (Ec), His6-tagged (enzyme, Expressed in E. coli and used as cell lysate or purified; also called CelE-Dc) MLVGAGDLIRNHTFDNRVGLPWHVVESYPAKASFEITSDGKYKITAQKIGEAGKGERWDIQFRHRGLALQQGHTYTVKFTVTASRACKIYPKIGDQGDPYDEYWNMNQQWNFLELQANTPKTVTQTFTQTKGDKKNVEFAFHLAPDKTTSEAQNPASFQPITYTFDEIYIQDPQFAGYTEDPPEPTNVVRLNQVGFYPNADKIATVATSSTTPINWQLVNSTGAAVLTGKSTVKGADRASGDNVHIIDFSSYTTPGTDYKIVTDVSVTKAGDNESMKFNIGDDLFTQMKYDSMKYFYHNRSAIPIQMPYCDQSQWARPAGHTTDILAPDPTKDYKANYTLDVTGGWYDAGDHGKYVVNGGIATWTVMNAYERALHMGGDTSVAPFKDGSLAIPEAEVYPDILDEARYQLINMKTLLNSQVPAGKYAGMAHHKAHDERWTALAVRPDQDTMKRWLQPPSTAATLNLAAIAAQSSRLWKQFDSAFATKCLTAAETARDAAVAHPEIYATMEQGAGGGAYGDNYVLDDFYWAACELYATTGSDKYLNYIKSSKHYLEMPTELTGGENTGITGAFDWGCTAGMGTITLALVPTKLPAADVATAKANIQAAADKFISISKAQGYGVPLEEKVISSPFDASVVKGFQWGSNSFVINEAIVMSYAYEFSDVNGTKNNKYINGALTAMDYLLGRNPNIQSYITGYGDNPLENPHHRFWAYQADNTFPKPPPGCLSGGPNSGLQDPWVKGSGWQPGERPAEKCFMDNIESWSTNEITINWNAPLVWISAYLDEKGPEIGGSVTPPTNLGDVNGDGNKDALDFAALKKALLSQDTSTINVANADINKDGSIDAVDFALLKSFLLGKITQHHHHHH | binds |  | 
2 | endoglucanase CelG from C. cellulolyticum fused to a dockerin domain from R. flavefaciens (Gf), His6-tagged (enzyme, Expressed in E. coli; also called CelG-Df) MGTYNYGEALQKSIMFYEFQRSGDLPADKRDNWRDDSGMKDGSDVGVDLTGGWYDAGDHVKFNLPMSYTSAMLAWSLYEDKDAYDKSGQTKYIMDGIKWANDYFIKCNPTPGVYYYQVGDGGKDHSWWGPAEVMQMERPSFKVDASKPGSAVCASTAASLASAAVVFKSSDPTYAEKCISHAKNLFDMADKAKSDAGYTAASGYYSSSSFYDDLSWAAVWLYLATNDSTYLDKAESYVPNWGKEQQTDIIAYKWGQCWDDVHYGAELLLAKLTNKQLYKDSIEMNLDFWTTGVNGTRVSYTPKGLAWLFQWGSLRHATTQAFLAGVYAEWEGCTPSKVSVYKDFLKSQIDYALGSTGRSFVVGYGVNPPQHPHHRTAHGSWTDQMTSPTYHRHTIYGALVGGPDNADGYTDEINNYVNNEIACDYNAGFTGALAKMYKHSGGDPIPNFKAIEKITNDEVIIKAGLNSTGPNYTEIKAVVYNQTGWPARVTDKISFKYFMDLSEIVAAGIDPLSLVTSSNYSEGKNTKVSGVLPWDVSNNVYYVNVDLTGENIYPGGQSACRREVQFRIAAPQGRRYWNPKNDFSYDGLPTTSTVNTVTNIPVYDNGVKVFGNEPAGGSEPGTKLVPTWGDTNCDGVVNVADVVVLNRFLNDPTYSNITDQGKVNADVVDPQDKSGAAVDPAGVKLTVADSEAILKAIVELITLPQHHHHHH |  | no binding | no binding
